B1: AMOTL2 peptide 66-81 (Angiomotin-like protein 2), 16-mer library wild type / TNKS ANK (TNKS 12 ANK repeats, residues 174-649) (parent complex)
chain 1: LQQATRQEPQGQEHQG
chain 2: TGVPAVSGALRELLEACRNGDVSRVKRLVDAANVNAKDMAGRKSSPLHFAAGFGRKDVVEHLLQMGANVHARDDGGLIPLHNACSFGHAEVVSLLLCQGADPNARDNWNYTPLHEAAIKGKIDVCIVLLQHGADPNIRNTDGKSALDLADPSAKAVLTGEYKKDELLEAARSGNEEKLMALLTPLNVNCHASDGRKSTPLHLAAGYNRVRIVQLLLQHGADVHAKDKGGLVPLHNACSYGHYEVTELLLKHGACVNAMDLWQFTPLHEAASKNRVEVCSLLLSHGADPTLVNCHGKSAVDMAPTPELRERLTYEFKGHSLLQAAREADLAKVKKTLALEIINFKQPQSHETALHCAVASLHPKRKQVTELLLRKGANVNEKNKDFMTPLHVAAERAHNDVMEVLHKHGAKMNALDTLGQTALHRAALAGHLQTCRLLLSYGSDPSIISLQGFTAAQMGNEAVQQILSESTPIRTSD

Variants of: B1
Assay: proteomic peptide phage display deep mutational scan (ProP-PD DMS): M13 P8 16-mer library selected against immobilised GST-tagged bait for four days (rounds), NGS of the eluted pools per day and pseudo-replica; bait immobilised on MaxiSorp plates (10 µg), library pre-cleared on GST, 2 h binding at 4 °C, five washes; one round per day, days 1-4; value from days 2 and 3
For chain 1 Q3P, the screen value was 0.000624 average fractional NGS count over selection days 2 and 3 (reads of this peptide / all reads for the bait, averaged over …. chain 1 Q3D was tested, and the screen value was 0.000274 average fractional NGS count over selection days 2 and 3 (reads of this peptide / all reads for the bait, averaged over …. With chain 1 Q3Y the screen value was 0.000305 average fractional NGS count over selection days 2 and 3 (reads of this peptide / all reads for the bait, averaged over …. In the case of chain 1 Q3H, the screen value is reported as 0.00741 average fractional NGS count over selection days 2 and 3 (reads of this peptide / all reads for the bait, averaged over …. With chain 1 Q3N the screen value was 0.000319 average fractional NGS count over selection days 2 and 3 (reads of this peptide / all reads for the bait, averaged over …. For chain 1 Q3L, the screen value was 0.000335 average fractional NGS count over selection days 2 and 3 (reads of this peptide / all reads for the bait, averaged over …. chain 1 P9T was tested, and the screen value was 0.000277 average fractional NGS count over selection days 2 and 3 (reads of this peptide / all reads for the bait, averaged over …. For chain 1 P9A, the screen value was 0.000163 average fractional NGS count over selection days 2 and 3 (reads of this peptide / all reads for the bait, averaged over …. In the case of chain 1 A4M, the screen value is reported as 0.00014 average fractional NGS count over selection days 2 and 3 (reads of this peptide / all reads for the bait, averaged over …. chain 1 A4N was tested, and the screen value was 0.000378 average fractional NGS count over selection days 2 and 3 (reads of this peptide / all reads for the bait, averaged over …. chain 1 A4G was tested, and the screen value was 0.00149 average fractional NGS count over selection days 2 and 3 (reads of this peptide / all reads for the bait, averaged over …. chain 1 A4F was tested, and the screen value was 0.000957 average fractional NGS count over selection days 2 and 3 (reads of this peptide / all reads for the bait, averaged over …. chain 1 A4R was tested, and the screen value was 0.000178 average fractional NGS count over selection days 2 and 3 (reads of this peptide / all reads for the bait, averaged over …. With chain 1 A4Y the screen value was 0.00172 average fractional NGS count over selection days 2 and 3 (reads of this peptide / all reads for the bait, averaged over …. In the case of chain 1 A4H, the screen value is reported as 0.000353 average fractional NGS count over selection days 2 and 3 (reads of this peptide / all reads for the bait, averaged over …. For chain 1 A4S, the screen value was 0.000138 average fractional NGS count over selection days 2 and 3 (reads of this peptide / all reads for the bait, averaged over …. For chain 1 A4D, the screen value was 0.000175 average fractional NGS count over selection days 2 and 3 (reads of this peptide / all reads for the bait, averaged over …. chain 1 A4Q was tested, and the screen value was 0.00114 average fractional NGS count over selection days 2 and 3 (reads of this peptide / all reads for the bait, averaged over …. With chain 1 A4W the screen value was 0.000419 average fractional NGS count over selection days 2 and 3 (reads of this peptide / all reads for the bait, averaged over …. For chain 1 A4V, the screen value was 0.000321 average fractional NGS count over selection days 2 and 3 (reads of this peptide / all reads for the bait, averaged over …. With chain 1 A4T the screen value was 0.000212 average fractional NGS count over selection days 2 and 3 (reads of this peptide / all reads for the bait, averaged over …. chain 1 E13I was tested, and the screen value was 0.000226 average fractional NGS count over selection days 2 and 3 (reads of this peptide / all reads for the bait, averaged over …. For chain 1 E13A, the screen value was 0.000224 average fractional NGS count over selection days 2 and 3 (reads of this peptide / all reads for the bait, averaged over …. With chain 1 E13Q the screen value was 0.000235 average fractional NGS count over selection days 2 and 3 (reads of this peptide / all reads for the bait, averaged over …. In the case of chain 1 E13L, the screen value is reported as 0.000144 average fractional NGS count over selection days 2 and 3 (reads of this peptide / all reads for the bait, averaged over …. chain 1 E13V was tested, and the screen value was 0.00131 average fractional NGS count over selection days 2 and 3 (reads of this peptide / all reads for the bait, averaged over …. chain 1 E13M was tested, and the screen value was 0.000514 average fractional NGS count over selection days 2 and 3 (reads of this peptide / all reads for the bait, averaged over …. For chain 1 E13S, the screen value was 0.000101 average fractional NGS count over selection days 2 and 3 (reads of this peptide / all reads for the bait, averaged over …. In the case of chain 1 E13H, the screen value is reported as 0.000694 average fractional NGS count over selection days 2 and 3 (reads of this peptide / all reads for the bait, averaged over …. For chain 1 L1W, the screen value was 0.000562 average fractional NGS count over selection days 2 and 3 (reads of this peptide / all reads for the bait, averaged over …. For chain 1 L1P, the screen value was 0.000936 average fractional NGS count over selection days 2 and 3 (reads of this peptide / all reads for the bait, averaged over …. In the case of chain 1 L1N, the screen value is reported as 0.000133 average fractional NGS count over selection days 2 and 3 (reads of this peptide / all reads for the bait, averaged over …. With chain 1 L1Y the screen value was 0.000392 average fractional NGS count over selection days 2 and 3 (reads of this peptide / all reads for the bait, averaged over …. For chain 1 L1I, the screen value was 0.000531 average fractional NGS count over selection days 2 and 3 (reads of this peptide / all reads for the bait, averaged over …. For chain 1 L1T, the screen value was 0.000919 average fractional NGS count over selection days 2 and 3 (reads of this peptide / all reads for the bait, averaged over …. For chain 1 L1M, the screen value was 0.000626 average fractional NGS count over selection days 2 and 3 (reads of this peptide / all reads for the bait, averaged over …. chain 1 L1D was tested, and the screen value was 0.00194 average fractional NGS count over selection days 2 and 3 (reads of this peptide / all reads for the bait, averaged over …. With chain 1 L1G the screen value was 0.000254 average fractional NGS count over selection days 2 and 3 (reads of this peptide / all reads for the bait, averaged over …. chain 1 L1Q was tested, and the screen value was 0.00176 average fractional NGS count over selection days 2 and 3 (reads of this peptide / all reads for the bait, averaged over …. chain 1 L1H was tested, and the screen value was 0.00276 average fractional NGS count over selection days 2 and 3 (reads of this peptide / all reads for the bait, averaged over …. chain 1 L1S was tested, and the screen value was 0.000161 average fractional NGS count over selection days 2 and 3 (reads of this peptide / all reads for the bait, averaged over …. With chain 1 L1V the screen value was 0.00393 average fractional NGS count over selection days 2 and 3 (reads of this peptide / all reads for the bait, averaged over …. With chain 1 H14M the screen value was 0.000405 average fractional NGS count over selection days 2 and 3 (reads of this peptide / all reads for the bait, averaged over …. chain 1 H14N was tested, and the screen value was 0.000168 average fractional NGS count over selection days 2 and 3 (reads of this peptide / all reads for the bait, averaged over …. chain 1 H14S was tested, and the screen value was 0.000117 average fractional NGS count over selection days 2 and 3 (reads of this peptide / all reads for the bait, averaged over …. For chain 1 H14A, the screen value was 0.00145 average fractional NGS count over selection days 2 and 3 (reads of this peptide / all reads for the bait, averaged over …. With chain 1 H14I the screen value was 0.000314 average fractional NGS count over selection days 2 and 3 (reads of this peptide / all reads for the bait, averaged over …. With chain 1 H14L the screen value was 0.000412 average fractional NGS count over selection days 2 and 3 (reads of this peptide / all reads for the bait, averaged over …. With chain 1 H14F the screen value was 0.00233 average fractional NGS count over selection days 2 and 3 (reads of this peptide / all reads for the bait, averaged over …. chain 1 H14E was tested, and the screen value was 0.000155 average fractional NGS count over selection days 2 and 3 (reads of this peptide / all reads for the bait, averaged over …. For chain 1 H14W, the screen value was 0.00121 average fractional NGS count over selection days 2 and 3 (reads of this peptide / all reads for the bait, averaged over …. chain 1 H14Q was tested, and the screen value was 0.000459 average fractional NGS count over selection days 2 and 3 (reads of this peptide / all reads for the bait, averaged over …. chain 1 H14R was tested, and the screen value was 0.00174 average fractional NGS count over selection days 2 and 3 (reads of this peptide / all reads for the bait, averaged over …. chain 1 H14V was tested, and the screen value was 0.00237 average fractional NGS count over selection days 2 and 3 (reads of this peptide / all reads for the bait, averaged over …. In the case of chain 1 G11T, the screen value is reported as 0.000177 average fractional NGS count over selection days 2 and 3 (reads of this peptide / all reads for the bait, averaged over …. In the case of chain 1 T5H, the screen value is reported as 0.00114 average fractional NGS count over selection days 2 and 3 (reads of this peptide / all reads for the bait, averaged over …. With chain 1 T5W the screen value was 0.000715 average fractional NGS count over selection days 2 and 3 (reads of this peptide / all reads for the bait, averaged over …. For chain 1 T5G, the screen value was 0.000124 average fractional NGS count over selection days 2 and 3 (reads of this peptide / all reads for the bait, averaged over …. chain 1 T5Q was tested, and the screen value was 0.00116 average fractional NGS count over selection days 2 and 3 (reads of this peptide / all reads for the bait, averaged over …. chain 1 T5I was tested, and the screen value was 0.000401 average fractional NGS count over selection days 2 and 3 (reads of this peptide / all reads for the bait, averaged over …. In the case of chain 1 T5F, the screen value is reported as 0.00053 average fractional NGS count over selection days 2 and 3 (reads of this peptide / all reads for the bait, averaged over …. In the case of chain 1 T5Y, the screen value is reported as 0.00023 average fractional NGS count over selection days 2 and 3 (reads of this peptide / all reads for the bait, averaged over …. With chain 1 T5V the screen value was 0.00996 average fractional NGS count over selection days 2 and 3 (reads of this peptide / all reads for the bait, averaged over …. For chain 1 T5D, the screen value was 0.000166 average fractional NGS count over selection days 2 and 3 (reads of this peptide / all reads for the bait, averaged over …. In the case of chain 1 T5N, the screen value is reported as 0.000716 average fractional NGS count over selection days 2 and 3 (reads of this peptide / all reads for the bait, averaged over …. In the case of chain 1 T5L, the screen value is reported as 0.00104 average fractional NGS count over selection days 2 and 3 (reads of this peptide / all reads for the bait, averaged over …. With chain 1 T5M the screen value was 0.000134 average fractional NGS count over selection days 2 and 3 (reads of this peptide / all reads for the bait, averaged over …. With chain 1 Q12M the screen value was 0.000359 average fractional NGS count over selection days 2 and 3 (reads of this peptide / all reads for the bait, averaged over …. With chain 1 Q12Y the screen value was 0.000541 average fractional NGS count over selection days 2 and 3 (reads of this peptide / all reads for the bait, averaged over …. In the case of chain 1 Q12H, the screen value is reported as 0.00103 average fractional NGS count over selection days 2 and 3 (reads of this peptide / all reads for the bait, averaged over …. chain 1 Q12L was tested, and the screen value was 0.000442 average fractional NGS count over selection days 2 and 3 (reads of this peptide / all reads for the bait, averaged over …. For chain 1 Q12F, the screen value was 0.000217 average fractional NGS count over selection days 2 and 3 (reads of this peptide / all reads for the bait, averaged over …. chain 1 Q12I was tested, and the screen value was 9.74e-05 average fractional NGS count over selection days 2 and 3 (reads of this peptide / all reads for the bait, averaged over …. With chain 1 Q12A the screen value was 0.000321 average fractional NGS count over selection days 2 and 3 (reads of this peptide / all reads for the bait, averaged over …. In the case of chain 1 Q12W, the screen value is reported as 0.000131 average fractional NGS count over selection days 2 and 3 (reads of this peptide / all reads for the bait, averaged over ….
